From IntAct's records for PubMed 29039417

B1: BBSome-interacting protein 1 (Homo sapiens), A8MTZ0 (parent)
chain: MLKAAAKRPELSGKNTISNNSDMAEVKSMFREVLPKQGPLFVEDIMTMVLCKPKLLPLKSLTLEKLEKMHQAAQNTIRQQEMAEKDQRQITH
partner: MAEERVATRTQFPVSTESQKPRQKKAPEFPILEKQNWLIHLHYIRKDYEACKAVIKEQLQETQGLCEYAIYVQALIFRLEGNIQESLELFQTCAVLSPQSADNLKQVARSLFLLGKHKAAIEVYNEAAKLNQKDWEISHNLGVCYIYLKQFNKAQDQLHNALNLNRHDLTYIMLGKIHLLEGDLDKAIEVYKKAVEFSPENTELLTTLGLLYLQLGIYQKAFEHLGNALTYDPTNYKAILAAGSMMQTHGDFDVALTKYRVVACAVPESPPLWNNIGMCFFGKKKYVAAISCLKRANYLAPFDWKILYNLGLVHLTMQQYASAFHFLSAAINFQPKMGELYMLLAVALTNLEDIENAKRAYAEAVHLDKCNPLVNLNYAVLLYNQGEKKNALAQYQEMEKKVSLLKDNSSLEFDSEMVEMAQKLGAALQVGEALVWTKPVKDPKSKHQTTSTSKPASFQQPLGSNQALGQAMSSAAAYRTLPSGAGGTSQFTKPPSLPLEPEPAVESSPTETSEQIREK
B2: BBSome complex member BBS1 (Homo sapiens), Q8NFJ9 (parent)
chain: MAAASSSDSDACGAESNEANSKWLDAHYDPMANIHTFSACLALADLHGDGEYKLVVGDLGPGGQQPRLKVLKGPLVMTESPLPALPAAAATFLMEQHEPRTPALALASGPCVYVYKNLRPYFKFSLPQLPPNPLEQDLWNQAKEDRIDPLTLKEMLESIRETAEEPLSIQSLRFLQLELSEMEAFVNQHKSNSIKRQTVITTMTTLKKNLADEDAVSCLVLGTENKELLVLDPEAFTILAKMSLPSVPVFLEVSGQFDVEFRLAAACRNGNIYILRRDSKHPKYCIELSAQPVGLIRVHKVLVVGSTQDSLHGFTHKGKKLWTVQMPAAILTMNLLEQHSRGLQAVMAGLANGEVRIYRDKALLNVIHTPDAVTSLCFGRYGREDNTLIMTTRGGGLIIKILKRTAVFVEGGSEVGPPPAQAMKLNVPRKTRLYVDQTLREREAGTAMHRAFQTDLYLLRLRAARAYLQALESSLSPLSTTAREPLKLHAVVQGLGPTFKLTLHLQNTSTTRPVLGLLVCFLYNEALYSLPRAFFKVPLLVPGLNYPLETFVESLSNKGISDIIKVLVLREGQSAPLLSAHVNMPGSEGLAAA
partner: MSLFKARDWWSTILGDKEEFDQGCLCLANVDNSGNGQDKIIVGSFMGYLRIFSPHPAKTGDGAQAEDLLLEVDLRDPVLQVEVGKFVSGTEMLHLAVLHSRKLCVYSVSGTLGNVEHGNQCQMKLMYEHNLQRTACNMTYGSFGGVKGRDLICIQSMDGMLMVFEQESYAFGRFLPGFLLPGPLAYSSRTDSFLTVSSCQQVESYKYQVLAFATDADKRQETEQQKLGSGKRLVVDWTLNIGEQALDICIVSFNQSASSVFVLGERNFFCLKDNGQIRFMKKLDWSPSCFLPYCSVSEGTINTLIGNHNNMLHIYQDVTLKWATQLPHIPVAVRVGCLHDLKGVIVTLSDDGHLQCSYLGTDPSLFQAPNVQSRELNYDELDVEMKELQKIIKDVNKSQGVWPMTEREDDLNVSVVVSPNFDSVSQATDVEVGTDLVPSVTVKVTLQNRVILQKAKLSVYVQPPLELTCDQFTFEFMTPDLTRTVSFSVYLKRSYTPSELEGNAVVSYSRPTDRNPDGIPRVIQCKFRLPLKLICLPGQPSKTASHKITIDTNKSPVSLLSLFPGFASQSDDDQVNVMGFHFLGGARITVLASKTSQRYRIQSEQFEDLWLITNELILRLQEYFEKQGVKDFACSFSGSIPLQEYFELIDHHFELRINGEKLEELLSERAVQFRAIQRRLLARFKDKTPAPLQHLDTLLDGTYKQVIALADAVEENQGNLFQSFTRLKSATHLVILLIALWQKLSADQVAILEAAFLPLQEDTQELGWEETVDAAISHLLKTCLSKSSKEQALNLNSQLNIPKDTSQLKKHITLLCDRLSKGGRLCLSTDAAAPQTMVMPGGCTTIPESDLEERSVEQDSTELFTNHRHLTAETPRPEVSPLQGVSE

Variants of: B1
Conditions: with bbs4_human BBS4, Q96RK4

Row | Variant | effect of a mutation on the interaction
1 | K85E | with no effect
2 | L34R | disrupting interaction strength
3 | K27S | disrupting interaction strength
4 | K27Y | disrupting interaction strength
5 | V42E | with no effect
6 | E25K | with no effect
7 | Q80E | with no effect
8 | Q80K | with no effect
9 | K52Y | disrupting interaction strength
10 | K52A | with no effect
11 | T16E | with no effect
12 | V49A | with no effect
13 | E84K | with no effect
14 | K54T | disrupting interaction strength
15 | K54A | with no effect
16 | K54E | with no effect
17 | L56E | with no effect
18 | C51A | with no effect
19 | D86A | with no effect
20 | L58A | with no effect
21 | H70A | with no effect
22 | H70E | with no effect
23 | R78E | with no effect

Row | Variant | effect of a mutation on the interaction
24 | R78A | with no effect
25 | K14L | disrupting interaction strength
26 | K14A | with no effect
27 | L55E | with no effect
28 | I77K | with no effect
29 | K36A | with no effect
30 | K36P | disrupting interaction strength
31 | R31E | with no effect
32 | Q89K | with no effect
33 | G38K | with no effect
34 | M29K | with no effect
35 | L50K | with no effect
36 | L63K | with no effect
37 | P35K | with no effect
38 | P35A | with no effect
39 | P35R | disrupting interaction strength
40 | L66A | with no effect
41 | L66E | with no effect
42 | E67A | disrupting interaction strength
43 | E67S | disrupting interaction strength
44 | P53A | with no effect
45 | P39A | with no effect
46 | Q71R | disrupting interaction strength

Row | Variant | effect of a mutation on the interaction
47 | L2A | with no effect
48 | M46K | with no effect
49 | M46E | with no effect
50 | D22K | with no effect
51 | S18E | with no effect
52 | Q37A | with no effect
53 | V33K | with no effect
54 | D44K | with no effect
55 | I90K | with no effect
56 | I90A | with no effect
57 | I90E | with no effect
58 | L61A | with no effect
59 | P57A | with no effect
60 | A6E | with no effect
61 | P9K | with no effect
62 | L11E | with no effect
63 | K3E | with no effect
64 | S21A | with no effect
65 | S60A | with no effect
66 | E64K | with no effect
67 | N19A | with no effect
68 | R88A | with no effect

Variants of: B2
Conditions: with pthb1_human BBS9, Q3SYG4

Row | Variant | effect of a mutation on the interaction
69 | A447E | with no effect
70 | A447K | with no effect
71 | E443K | with no effect
72 | E443A | with no effect
73 | L425K | with no effect
74 | L425A | with no effect
75 | L425E | with no effect
76 | K424E | with no effect
77 | K424A | with no effect
78 | P428K | with no effect
79 | P428A | with no effect
80 | P428E | with no effect
81 | E441K | with no effect
82 | E441A | with no effect
83 | M423K | with no effect
84 | M423E | with no effect
85 | M423A | with no effect
86 | P417A | with no effect
87 | P417E | with no effect
88 | P417K | with no effect
89 | R450E | with no effect
90 | R450K | with no effect
